# Test results from patent US20160355588A1 (published 2016).
# Like-named read-outs stand apart in the source and are kept apart here.
# Key:
# CD3 on Jurkat T cells [1] = molecular target: T1, CD3 on Jurkat T cells (human, UniProt P07766 23-207)
# CD3 on Jurkat T cells [2] = molecular target: T1, CD3 on Jurkat T cells; remark: listed apart in the source
# CD3 on Jurkat T cells [3] = molecular target: T1, CD3 on Jurkat T cells; assay: whole cell binding
# CD3 on Jurkat T cells [4] = molecular target: T1, CD3 on Jurkat T cells; assay: whole cell binding; remark: listed apart in the source
# v6475 = assay: whole cell binding
# v1653 = assay: whole cell binding
Binder,Kd (CD3 on Jurkat T cells [3]),Kd (CD3 on Jurkat T cells [4]),other results
v6750 (bispecific antibody) heavy: QVQLQQSGAELVRPGSSVKISCKASGYAFSSYWMNWVKQRPGQGLEWIGQIWPGDGDTNYNGKFKGKATLTADESSSTAYMQLSSLASEDSAVYFCARRETTTVGRYYYAMDYWGQGTTVTVSSASTKGPSVFPLAPSSKSTSGGTAALGCLVKDYFPEPVTVSWNSGALTSGVHTFPAVLQSSGLYSLSSVVTVPSSSLGTQTYICNVNHKPSNTKVDKKVEPKSCDKTHTCPPCPAPELLGGPSVFLFPPKPKDTLMISRTPEVTCVVVDVSHEDPEVKFNWYVDGVEVHNAKTKPREEQYNSTYRVVSVLTVLHQDWLNGKEYKCKVSNKALPAPIEKTISKAKGQPREPQVYVYPPSRDELTKNQVSLTCLVKGFYPSDIAVEWESNGQPENNYKTTPPVLDSDGSFALVSKLTVDKSRWQQGNVFSCSVMHEALHNHYTQKSLSLSPG not shown light: not shown,,,Kd (CD3 on Jurkat T cells [1]): ~30 nM; Kd (CD3 on Jurkat T cells [2]): ~30 nM
v875 (bispecific antibody) chain 1: DIQLTQSPASLAVSLGQRATISCKASQSVDYDGDSYLNWYQQIPGQPPKLLIYDASNLVSGIPPRFSGSGSGTDFTLNIHPVEKVDAATYHCQQSTEDPWTFGGGTKLEIKGGGGSGGGGSGGGGSQVQLQQSGAELVRPGSSVKISCKASGYAFSSYWMNWVKQRPGQGLEWIGQIWPGDGDTNYNGKFKGKATLTADESSSTAYMQLSSLASEDSAVYFCARRETTTVGRYYYAMDYWGQGTTVTVSSAAEPKSSDKTHTCPPCPAPELLGGPSVFLFPPKPKDTLMISRTPEVTCVVVDVSHEDPEVKFNWYVDGVEVHNAKTKPREEQYNSTYRVVSVLTVLHQDWLNGKEYKCKVSNKALPAPIEKTISKAKGQPREPQVYTYPPSRDELTKNQVSLTCLVKGFYPSDIAVEWESNGQPENNYKTTPPVLDSDGSFALVSKLTVDKSRWQQGNVFSCSVMHEALHNHYTQKSLSLSPGK chain 2: not shown,~30 nM,~30 nM,
v1853 (bispecific antibody) heavy: QVQLVQSGGGVVQPGRSLRLSCKASGYTFTRYTMHWVRQAPGKGLEWIGYINPSRGYTNYNQKVKDRFTISRDNSKNTAFLQMDSLRPEDTGVYFCARYYDDHYCLDYWGQGTPVTVSSASTKGPSVFPLAPSSKSTSGGTAALGCLVKDYFPEPVTVSWNSGALTSGVHTFPAVLQSSGLYSLSSVVTVPSSSLGTQTYICNVNHKPSNTKVDKKVEPKSCDKTHTCPPCPAPELLGGPSVFLFPPKPKDTLMISRTPEVTCVVVDVSHEDPEVKFNWYVDGVEVHNAKTKPREEQYNSTYRVVSVLTVLHQDWLNGKEYKCKVSNKALPAPIEKTISKAKGQPREPQVYVYPPSRDELTKNQVSLTCLVKGFYPSDIAVEWESNGQPENNYKTTPPVLDSDGSFALVSKLTVDKSRWQQGNVFSCSVMHEALHNHYTQKSLSLSPGK not shown light: DIQMTQSPSSLSASVGDRVTITCSASSSVSYMNWYQQTPGKAPKRWIYDTSKLASGVPSRFSGSGSGTDYTFTISSLQPEDIATYYCQQWSSNPFTFGQGTKLQITRTVAAPSVFIFPPSDEQLKSGTASVVCLLNNFYPREAKVQWKVDNALQSGNSQESVTEQDSKDSTYSLSSTLTLSKADYEKHKVYACEVTHQGLSSPVTKSFNRGEC,~5 nM,~5 nM,
Raji B cells (receptor) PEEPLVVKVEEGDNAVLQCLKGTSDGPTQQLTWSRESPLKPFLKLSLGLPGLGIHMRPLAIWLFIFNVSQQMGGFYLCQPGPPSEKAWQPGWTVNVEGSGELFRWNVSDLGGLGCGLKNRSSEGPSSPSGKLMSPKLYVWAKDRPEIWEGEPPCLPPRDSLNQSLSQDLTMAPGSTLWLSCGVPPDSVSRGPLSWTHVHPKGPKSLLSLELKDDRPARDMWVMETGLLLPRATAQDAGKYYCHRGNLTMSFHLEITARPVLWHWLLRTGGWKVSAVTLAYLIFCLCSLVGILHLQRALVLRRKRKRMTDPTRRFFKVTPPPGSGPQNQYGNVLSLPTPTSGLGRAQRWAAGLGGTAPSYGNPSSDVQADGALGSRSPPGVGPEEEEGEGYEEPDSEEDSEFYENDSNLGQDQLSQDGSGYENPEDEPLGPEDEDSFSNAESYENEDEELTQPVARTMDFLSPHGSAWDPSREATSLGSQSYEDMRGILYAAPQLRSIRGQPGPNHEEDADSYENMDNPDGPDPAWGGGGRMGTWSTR,,,Kd (v6475): 1.5 nM; Kd (v1653): 1.4 nM
